Measurements as given in US20250382354A1 (INSTITUTE FOR RESEARCH IN BIOMEDICINE IRB, published 2025).

What was measured:
[1] = biological target: SARS-CoV-2 S of the Ancestral pseudovirus (pSARS-COV2-Strunc) (SARS-CoV-2 (ancestral), UniProt P0DTC2 14-1254); test: cell-based or functional assay
[2] = biological target: SADS FP peptide (SADS); test: peptide ELISA
[3] = biological target: T1, HCoV-229E S ectodomain (HCoV-229E); test: ELISA on coated S
T1 construct: range 17-1142

[4] = biological target: HKU24 HR2 peptide (HKU24); test: peptide ELISA
[5] = biological target: C-terminally truncated SARS-CoV-2 S protein (pSARS-CoV2-Strunc), ancestral (SARS-CoV-2, UniProt P0DTC2 14-1273); test: cell-based or functional assay

B1: sd1.040 (antibody, V domains shown)
VH: QVQLVQSGAEVKKPGASVKVSCKASGYTFTSFYIHWVRQAPGQGLEWMGIIDPSGGSTSYPQKFQGRVTMTRDTSTSTVYMDLSSLRSEDTAVYYCTRDGSAGDNSWFDPWGQGTLVTVSS
VL: not shown
[1]
  Ancestral Pseudovirus IC50: 0.245 µg/mL

B2: fp.006 (antibody, V domains shown)
VH: VQLVESGGGVVQPGGSLRLSCAASGFNFNNYALHWVRQAPGKGLEWVAIISYEARNKKYGVSVMGRFSISRDNSKSIMYLEMNSLRVEDTGVYYCARDLFLSDYDRSGYDPTRGGFDHWGQGTLVTVSS
VL: EIVMTQSPATLSVSPGERATLSCRASQSVSSSLAWYQHRFGQAPRLLISGASTRATGIPGRFSGSGSGTEFTLTISSLQSEDVAVYYCQQYGDWPLVTFGGGTKVEIK
[2]
  EC50: 0.0154 µg/mL
[3]
  EC50: 0.0349 µg/mL

B3: rbd.043 (antibody, V domains shown)
VH: QVQLVQSGAEVKKPGSSVKVSCKVSGGSFSNYGISWVRQAPGQGLEWMGGIIPLFGPADYAQKVQGRVTITADKSTSTAYMELRSLRSEDTAVYFCARGVEIVATIVGPLVREDHYYYYGMDVWGQGTTVTVSS
VL: not shown
[1]
  Ancestral Pseudovirus IC50: 0.000573 µg/mL

B4: rbd.048 (antibody, V domains shown)
VH: EVQLVESGGGLVQPGGSLRLSCAASGFTVSSNYMTWVRQAPGKGLEWVSVIYSGGSTFYTDSVKGRFTISRDNSKNTLYLQMNSLRAEDTAVYYCARDVVYYGMDVWGQGTTVTVSS
VL: DIQMTQSPSSLSASVGDRVTITCRASQSISSYLNWYQQKPGKAPKLLIYAASSLQSGVPSRFSGSGSGTDFTLTISSLQPEDFATYYCQESYSNSPYTFGQGTKLEIK
[1]
  Ancestral Pseudovirus IC50: 0.00275 µg/mL

B5: sd1.034 (antibody, V domains shown)
VH: EVQLVESGGGVVQPGRSLRLSCAASGFSFSNYGMHWVRQAPGKGLEWVAVISYDGSHKSFADSVKGRFTISRDNSKNTLNLQMNSLRREDTAVYYCATDQGGSLGYWGQGTLVTVSS
VL: QSALTQPASVSGSPGQSITISCTGTSGDVGGYNYVSWYQHHPGKAPKLMIYDVSNRPSGVSNRFSGSKSGNTASLTISGLQAEDEADYYCSSYTSTSTSWVFGGGTKLTVL
[1]
  Ancestral Pseudovirus IC50: 0.387 µg/mL

B6: hr2.020 (antibody, V domains shown)
VH: EVQLVQSGAEVKKPGESLKISCKGSGYRFASHWIGWVRQMPGKGLQWMGIIYPGDSDTKYSPSFQGQVTISADKSINTVYLHWTSLKASDTAVYYCARRPPHLDGGDSPIRFDHWGQGTLVTVSS
VL: QSVLTQPPSASGTPGQRVTISCSGSRSNIGSNDVYWYQQFPGTAPKLLIYRNNQRPSGVPDRFSGSKSGTSASLAISGLRSEDEADYYCATWDDRLTGVFGGGTKLTVV
[4]
  EC50: 0.0329 µg/mL

B7: rbd.142 (antibody, V domains shown)
VH: EVQLVESGGGVVQPGRSLRLSCVASGLTFSRYGMHWVRQAPGKGLEWVAVTTYDGSNKDYADSVKGRFTISRDNSKNTLYLQMNSLRAEDTAVYYCAKVGGGEYCSGGSCYGSYGMDVWGQGTTVTVSS
VL: not shown
[1]
  Ancestral Pseudovirus IC50: 5.09 µg/mL

B8: rbd.035 (antibody, V domains shown)
VH: EVQLLESGGGLIEPGGSLRLSCAASGFPFNTFAMTWVRQPPGKGLEWVATISSRGDYTFYADFVKGRFSISRDNANNALWLDMSGLRAEDTALYYCAKGESGYDLYLYGLDLWGQGTTVTVSS
VL: DIQMTQSPSSLSASVGDGVTITCRASQNINNYLSWYQKKAGKAPKLLIYGASTLHSGVPSRFSGSGSGTDFTLTISSLQPEDFASYYCQQNSPTPPWTFGQGTKVEIK
[1]
  Ancestral Pseudovirus IC50: 0.00152 µg/mL

B9: rbd.123 (antibody, V domains shown)
VH: QVQLVQSGAEVKKPGSSVKVSCKASGGAFRMYAISWVRQAPGQGLEWMGGIIPISGTATYTQNFQGRVTITVDRSTSTAYMELSSLRSDDTALYYCARGPRTGYDYFDFWGQGTLVTVSS
VL: DIQMTQSPSTLSASVGDRVTITCRASQSISSWLAWYQQKPGKAPNLLIYDASSLESGVPSRFSGSGSGTEFTLTISSLQPDDFATYYCQQYKSYPYTFGQGTKLEIK
[1]
  Ancestral Pseudovirus IC50: 1.21 µg/mL

B10: sd1.108 (antibody, V domains shown)
VH: QVQLVQSGAEVKKPGASVKVSCKASGYTFTSYYIHWVRQTPGQGLEWMGIINPRGGSTSYPQKFQGRVSMTRDTSTSTVFMELSSLRSDDTAVYYCAREHREDTAMDNQPSDSWGQGTLVTVSS
VL: DIVMTQSPDSLSVSLGERATINCKSSRSVFYSSNNKSYLAWYQQKPGQPPKLLIYWASTRESGVRDRFSGSGSGTDFTLTISSLQAEDVAVYYCQQYYNTPYTFGQGTKLEIK
[1]
  Ancestral Pseudovirus IC50: 0.446 µg/mL

B11: hr2.021 (antibody, V domains shown)
VH: QVQLVQSGAEVKKPGASVKVSCKASEAIFSGSYLHWVRQAPGQGLEWMGIITPSGDKTFYAQRFQGRLTMTRDTSTNTLHMHLSGLNSEDTAMYYCARQADKGGWDYWGQGTLVTVSS
VL: EIVLTQSPGTLSLSPGERATLSCRASQSVTSNYVAWYQQKPGQAPRLLIYGASTRATGIPDRFSGGGSGTDFTLTITRLEPEDFAVYYCQQYGSSPPTFTFGPGTKVDIK
[4]
  EC50: 0.0195 µg/mL
[5]
  Ancestral Pseudovirus IC50: 3.02 µg/mL

B12: hr2.024 (antibody, V domains shown)
VH: QVQLVQSGAEVKKPGASVKVSCKASEDIFTDSYLHWVRQAPGQGLEWMGIITPSGDKTFYAQQFQGRLTMTRDPSTNTLYMFLSGLRSDDTAMYFCARQAEKGGWDYWGHGTLVTVSS
VL: EIVLTQSPGTLSLSPGQRATLSCRSSQTITSNYLAWYQQRPGQAPRLLIYGASIRATGIPDRFSGSGSGTDFTLTISRLEPEDFAVYYCQQYGSSPPTFIFGPGTKVDIK
[4]
  EC50: 0.0218 µg/mL
[5]
  Ancestral Pseudovirus IC50: 0.301 µg/mL

B13: fp.010 (antibody, V domains shown)
VH: EVQLLESGGGLVQPGGSLRLSCAASGFTFSTYAMNWVRQAPGKGLEWVSAISSSGLSTQYADSVRGRFTISRDTSKNTLYLHMNSLRAGDTAVYYCAKVEYSGYDPRGPFDSWGQGTLVTVSS
VL: DIQMTQSPSTLSASVGDRVTITCRASQSISGWLAWYQQKPGRAPKLLIYKASSLERGVPSRFSGSGSGTEFTLTISSLQPDDFATYYCQEYSSYPLCTFGQGTKLEIK
[2]
  EC50: 0.0644 µg/mL

B14: rbd.038 (antibody, V domains shown)
VH: QVQLVQSGAEVKKPGASVKVSCKASGYTFSGYYMHWVRQAPGQGLEWVGWISPTSGGTKYAQKFQGRVTMTRDTSITTVYMELNRLRSDDTAVYYCAREPFPYCTSDICHSNYFYYYAMDVWGQGTTVTVSS
VL: QSALTQPPSASGSPGQSVTISCTGSSSDLGDHNYVSWYQQHPGKAPKVMIYEVSKRPSGVPDRFSGSKSGNTASLTVSGLQAEDEADYYCSSYAGSLYVFGTGTKVTVL
[1]
  Ancestral Pseudovirus IC50: 0.000552 µg/mL

B15: hr2.017 (antibody, V domains shown)
VH: EVQLVESGGGLVQPGGSLRLSCAVSGFAFSSSWMHWIRQAPGRGLVWVSRINRDGSTTDYADSVKGRFTISRDNAKATLYLQMNSLRAEDTAVYYCATMGFDYWGQGALVTVSS
VL: DIVMTQSPDSLAVSLGERATINCKSSQNVLYSSNNKNHLSWYQQKPGQPPKLLIYWASTRKSGVPDRFSGSGSGTDFTLTINSLQAEDVAVYYCQQYFSTPNTFGQGTKLEIK
[4]
  EC50: 0.0176 µg/mL
[5]
  Ancestral Pseudovirus IC50: 0.542 µg/mL

B16: rbd.031 (antibody, V domains shown)
VH: EVQLVESGGGVVQPGRSLRLSCAASGFTFKTYGMHWVRQAPGKGLEWVAVISYEGSNEYYAESVKGRFTISRDNSKNTLYLHMNSLRAEDTAVYYCAKGEYYYHSSTYYYLDYWGRGTLVTVSS
VL: DIQMTQSPSTLSASVGDRVTITCRASQSISSWLAWYQQKPGKAPKVLIYDASSLQSGVPLRFSGSGSGTEFTLTISSLQPDDFATYYCQQYDTYWTFGQGTKVEIK
[1]
  Ancestral Pseudovirus IC50: 0.862 µg/mL

B17: hr2.015 (antibody, V domains shown)
VH: QVQLVQSGAEVKKPGASVKVSCKASGYTFSSYYVNWVRQAPGQGLEWLGIINRSGSSTIYAQKFQGRVTMTRDTSTSTVYLELSSLRSEDTAVYYCARDQDHALHWGQGTLVTVSS
VL: QSVLTQPPSVSAAPGQKVTISCSGSSSNIGSNYVSWYQQLPGTAPKLLIYDNSERPSGIPDRFSGSRSGTSATLGITGLQTGDEADYYCGTWDTSLSAWVFGGGTKLTVL
[4]
  EC50: 0.0482 µg/mL
[5]
  Ancestral Pseudovirus IC50: 3.83 µg/mL

B18: rbd.141 (antibody, V domains shown)
VH: EVQLVESGGGVVQPGRSLRLSCAASGFTFSSYGMHWVRQAPGKGLEWVAVISYDGKIKYYADSVEGRFTISRDNSKNALYLQMNSLRAEDTAVYYCAKYGIVTSFGVVPPYDMDVWGQGTTVTVSS
VL: DVVMTQSPLSLPVTLGQPASISCRSSQSLVYSDGNTFLNWFQQRPGQSPRRLIYKVSDRDSGVPDRFSGSGSGTDFTLKISRVEAEDVGVYYCMQGTNWPPTFGQGTKVEIK
[1]
  Ancestral Pseudovirus IC50: 0.164 µg/mL

B19: rbd.045 (antibody, V domains shown)
VH: QVQLQESGPGLVKPSETLSLTCTVSGGAFRSFFWTWIRQPPGKGLEWIGNIYYSGSTNYNPSLKSRVTISQDMSENQFSLKLSSVTAADTAVYYCARSQWLRGNFDHWGQGILVTVSS
VL: NFMLTQPHSVSESPGKTVTISCTATSGYIASNYVQWYQQRPGSAPTTVIYEDNQRPSGVPDRFSGSIDSSSNSASLTISGLKPEDEADYYCQSFDTAYAVFGGGTQLTVL
[1]
  Ancestral Pseudovirus IC50: 0.00557 µg/mL

B20: sd1.127 (antibody, V domains shown)
VH: EVQLVESGGALVKPGGSLTLSCVASGFTFSHAWMTWVRQAPGKGLEWVGRIKTKTEGGTIDYAAPLRGRFTISRDDSKNTLYLRMNSLKIEDTAKYYCTTHSSPDYWGQGTLVTVSS
VL: DIQMTQSPSSLSASIGDRVTITCRASQGIGNSLLWYQQKRGKVPKLLIYAASTLQSGVPSRFSGSGSGTDFTLTISSLQPEDVATYYCQRYNSAPLTFGGGTKVEIK
[1]
  Ancestral Pseudovirus IC50: 6.68 µg/mL

B21: rbd.143 (antibody, V domains shown)
VH: EVQLVESGGGLVQPGGSLRLSCSASGFTFRRYAMHWVRQAPGKGLQHVSAISSDGDNTHYADSVKGRFTISRDNFKNTLHLQMSSLRPEDTAVYYCVKDPFSNFHYFDCWGQGILVTVSS
VL: not shown
[1]
  Ancestral Pseudovirus IC50: 0.28 µg/mL
